Reference: patent publication US20210108188A1

Target: APOBEC3B with C-terminal 3xHA tag (A3Bi-3xHA) (human) (UniProt Q9UH17)
Test: cell-based or functional assay

“hnRNPUL1-Cas9n-UGI-NLS (heterogeneous nuclear ribonucleoprotein U-like fused to the N-terminal end of Cas9 nickase, in the BE3 vector in place of APOBEC1) (from UniProt Q9BUJ2 1-856; Q99ZW2 2-1368; P14739 2-84)” showed an eGFP-positive 293T cells 72 hours post-transfection (chromosomal eGFP Leu202 reporter) of 1.5% and an episomal eGFP Leu202 reporter editing frequency against the BFP-Cas9n/gRNA background of over 2 fold.
